The results in this text go back to the nanobody polyreactivity screen of Harvey et al. (2022).

A short description of this data set: yeast display, Sf9 membrane polyspecificity reagent, FACS + sequencing; frameworks hold sequencing errors. In a few lines:
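Nanobodies came from a synthetic yeast display library in Saccharomyces cerevisiae BJ5465, induced with galactose for 36–48 hours and stained for 1 hour at 4 °C with 10% biotinylated, detergent-solubilized Sf9 membrane reagent. Cells were enriched on streptavidin microbeads and then FACS-sorted, with low and high (top ~1%) gates set on anti-HA fluorescence for expression and streptavidin fluorescence for reagent binding. Each polyreactivity label reflects the gate a clone came from. Genes were amplified by colony PCR, sequenced by MiSeq 2 × 250 and filtered by CDR length.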
Consider “QVQLVESGGGLVQAGGSLRLSCAASGSIFTTYAMGWYRQAPGKERELVAAISSTSGSTYYADSVKGRFTISGDNAKNTVYLQMTSLKPEDTAVYYCAARGGYWGQGTQVTVSS”, for which the “polyreactivity (PSR sort gate)” value is recorded as “low polyreactivity”.
With “QVQLVESGGGLVQAGGSLRLSCAASGSIFTVYAMGWYRPAPGTERELVARISSGAGTTYADSVKGRFTISRDNAKNTVYVQMKSLTPEDTAVYYCAAYTWDTDHYWYGYVPYDYWGQGTQVSVSS”, the “polyreactivity (PSR sort gate)” value is “low polyreactivity”.
For “QVQLVESGGGLVQAGGSLRLSCAASGSIFTVYAMGWYRQAPGKERELVAAISRRGGSTYYADSVKGRFTISRDNAKNTVYLQMNSLKPEDTAVYYCAALERTLDNKYQFGYWGQGTEVTVSS” the value was “high polyreactivity”; for “QVQLVESGGGLVQAGGSLRLSCAASGSIFTVYAMGWYRQAPGKERELVAVINYRGGNTYYADSVKGRFTISRDNAKNTVYLQMNSLKPEDTAVYYCATEVSWHWYQLSVPRMDYWGQGTQVTVSS”, “low polyreactivity”; for “QVQLVESGGGLVQAGGSLRLSCAASGSIFTVYGMGWYRQAPGKERELVAAITCTSGGTYYADSVKGRFTISRDNAKNTVYLQMNSLKPEDTAVYYCNADGGSGAYLDLTITDYDYWGQGTQVTVSS”, “low polyreactivity”.
For “QVQLVESGGGLVQAGGSLRLSCAASGSIFTWNAMGWYRQAPGKERELVAAISWIGDSTYYADSVKGRFTISRDNAKNTVYLQMNSLKPEDTAVYYCAAEYAQGSRELESWGQGTQVTVSS” the value was “low polyreactivity”; for “QVQLVESGGGLVQAGGSLRLSCAASGSIFTWNGMGWYRQAPGKERELVAAISNGASTNYADSVKGRFTISRDNAKNTVYLQMNSLYPEDTAVYYCAAKSTGRYDYWGQGTQVTVSS”, “low polyreactivity”.
In the case of “QVQLVESGGGLVQAGGSLRLSCAASGSIFTWNVMGWYRQAPGKERELVAAISSGGSTNYADSVKGRFTISRDNAKNTVYLQMNSLKPEDTAVYYCATYFRVWYRSYDYWGQGTQVTVSS”, the “polyreactivity (PSR sort gate)” value is “high polyreactivity”.
As to “QVQLVESGGGLVQAGGSLRLSCAASGSIFTWYAMGWYRQAPGKERELVAAITRGGSTYADSVKGRFTISRDNAKNTVYLQMNSLKPEDTAVYYCNAVYGVYDFNYWGQGTQVTVSS”, the “polyreactivity (PSR sort gate)” value is “low polyreactivity”.
As for “QVQLVESGGGLVQAGGSLRLSCAASGSIFTYNTMGWYRQAPGKERELVAAISGRGGRTYYADSVKGRFTISRDNAKKTVYLQMNSLKPEDTAVYYCNARKYSQKIYGNYNYWGQGTQVTVSS”, the “polyreactivity (PSR sort gate)” value was “high polyreactivity”.
“QVQLVESGGGLVQAGGSLRLSCAASGSIFTYYAMGWYRPEPGKERELVAAISRRGTRTYYADSVKGRFTISRDNAKNTVYLQMNSLKPEDTAVYYCAAEYTETGTAKMEYWGQGTQVTVSS”: the “polyreactivity (PSR sort gate)” value is listed as “high polyreactivity”.
In the case of “QVQLVESGGGLVQAGGSLRLSCAASGSIFTYYAMGWYRQAPGKERELVAAIDFSGASTSYADSVKGRFTISRDNAKNTVYLQMNSLKPEDTAVYYCAAVLYWYPPYYYWGQGTQVTVSS”, the “polyreactivity (PSR sort gate)” value is listed as “low polyreactivity”.
With “QVQLVESGGGLVQAGGSLRLSCAASGSIFTYYAMGWYRQAPGKERELVAAINWSGGSTYYADSVKGRFTISRDNAKNTVYLQMNSLKPEDTAVYYCATDYYARRHSPRYDYWGQGTQVTVSS”, the “polyreactivity (PSR sort gate)” value was “low polyreactivity”.
Turning to “QVQLVESGGGLVQAGGSLRLSCAASGSIFTYYAMGWYRQAPGKERELVAAISYSGGTTYYADSVKGRFTISRDNAKNTVYLQMYSLKPEDTAVYYCNVDADYESEWLSVGYDYWGQGTQVTVSS”, the “polyreactivity (PSR sort gate)” value is recorded as “low polyreactivity”.
Consider “QVQLVESGGGLVQAGGSLRLSCAASGSIFTYYAMGWYRQAPGKERELVASISWGGGSTYYADSVKGRFTISRDNAKNSVYLQMNSLKPVDTAVYYCATDVYVDYFVGGEYWGQGTQVTVSS”, for which the “polyreactivity (PSR sort gate)” value was “low polyreactivity”.
For “QVQLVESGGGLVQAGGSLRLSCAASGSIFTYYVMGWYRQAPGKERELVATITGSSGSTYYADSVKGRFTISRDNAKNTVYLQMNSLKPEDTAVYYCNRTYYHYLYRGYGYWGQGTQVTVSS”, the “polyreactivity (PSR sort gate)” value is listed as “low polyreactivity”.
Consider “QVQLVESGGGLVQAGGSLRLSCAASGSIFVAYDMGCYRQAPGKESALVAAIDSVGRTNYADSVKGRFTISRDNAKNTVYLQMNSLQPEDTAVYYCNADQYYSFYDPDDYWGQGTQVTVSS”, for which the “polyreactivity (PSR sort gate)” value is given as “low polyreactivity”.
Take “QVQLVESGGGLVQAGGSLRLSCAASGSIFVDYAMGWYRQAPGKERELVAAITSGGRTNYADSVKGRFTISRDNAKNTVYLQMKSLKPEDTAVYYCNKTRYTNYYTTTFDYWGQGTQVTVSS”: the “polyreactivity (PSR sort gate)” value is reported as “low polyreactivity”.
Turning to “QVQLVESGGGLVQAGGSLRLSCAASGSIFVFYAMGWYRQAPGKERELVASITRSGVSTYYADSVKGRFTISRDNAKNTVYLQMNSLKPEDTAVYYCNVYKGNVVEHDYWGQGTQVTVSS”, the “polyreactivity (PSR sort gate)” value is given as “high polyreactivity”.
With “QVQLVESGGGLVQAGGSLRLSCAASGSIFVGNAMGWYRQAPGKERELFAAISSSGGSTYYADSVKGRFTISRDKAKNTFYLQMNILKPEDTAVYYCASDTYSTSGFYYWGQGTQVTVSS”, the “polyreactivity (PSR sort gate)” value is “low polyreactivity”.
For the sequence “QVQLVESGGGLVQAGGSLRLSCAASGSIFVGNAMGWYRQAPGKERELVAAISRGGGSTYYADSVKGRFTISRDNAKNTVYLQMNSLKPEDTAVYYCAAVKYYYGSAYDYWGQGTQVTVSS”, the “polyreactivity (PSR sort gate)” value is on record as “high polyreactivity”.
Take “QVQLVESGGGLVQAGGSLRLSCAASGSIFVGNAMGWYRQAPGKERELVAAISWGGARTYYADSVKGRFTISRDNAKNTVYLQMNSLKQEDTAVYYCAAGSSSRSTTHYYYWGQGTQVTVSS”: the “polyreactivity (PSR sort gate)” value is reported as “high polyreactivity”.
Take “QVQLVESGGGLVQAGGSLRLSCAASGSIFVGNAMGWYRQAPGKERELVATISWSGGSTYYADSVKGRFTISRDNAKNTVYLQMNSLKPEDTAVYYCAKTPYRRYRYGGYTYRTYDYWGQGTQVTVSS”: the “polyreactivity (PSR sort gate)” value is listed as “low polyreactivity”.
“QVQLVESGGGLVQAGGSLRLSCAASGSIFVGYAMGWYRQAPGKERELVAAISASGSSTYYADSVKGRFTISRDNAKNTVYLQMNSLKPEDTAVYYCATKRVASSWTYVYWGQGSQVTVSS”: the “polyreactivity (PSR sort gate)” value was “high polyreactivity”.
In the case of “QVQLVESGGGLVQAGGSLRLSCAASGSIFVGYAMGWYRQAPGKERELVARISSDGDTYYADSVKGRFTISRDNAKNTVYLQMNSLKPEDTAVYYCNADLYGGGDKSVISGLNGEYEYWGQGTQVTVSS”, the “polyreactivity (PSR sort gate)” value was “low polyreactivity”.
For the sequence “QVQLVESGGGLVQAGGSLRLSCAASGSIFVGYAMGWYRQAPGKETELVAAISTRGGSTYYAETVKGRFTISRDNAKNTVYLQMNILKPEDNAVYYCAADYLDSTYGYVYGWDDYWGKGTQVTVSS”, the “polyreactivity (PSR sort gate)” value was “low polyreactivity”.
“QVQLVESGGGLVQAGGSLRLSCAASGSIFVIYAMGWYRPAPGKERELVAAITGRGGRTYYADSVKGRFTISRDNAKNTVYLQMISLKPEDNAVYYCAADSVYTLGLKYDYWGHGTQVTVSS”: the “polyreactivity (PSR sort gate)” value is recorded as “high polyreactivity”.
As for “QVQLVESGGGLVQAGGSLRLSCAASGSIFVKNAMGWYIHAPGKERELVATISRRGGSTYYADSVKGRFTISRDIAKNTVYLQMNSMKPEDTAVYYCAADRSNRPYYRQGYDYWGQGTQVTVSS”, the “polyreactivity (PSR sort gate)” value is listed as “high polyreactivity”.
“QVQLVESGGGLVQAGGSLRLSCAASGSIFVKNAMGWYRQAPGKERELVAVITIRTATPYYADSVKGRFTISRDNAKNSVYLQMNSLKPEDTAVYYCAAAKRQRGYLQREGNYWGQGTQVTVSS”: the “polyreactivity (PSR sort gate)” value is recorded as “low polyreactivity”.
As to “QVQLVESGGGLVQAGGSLRLSCAASGSIFVKYAMGWYRQAPGTERELVAAISWSGDSTYYADSVKGRITISRDNAKNTVYLQMNSLIPEDTAVYFCAAYSGYGGVSMYYWGQGTQVTVSS”, the “polyreactivity (PSR sort gate)” value is “low polyreactivity”.
